Substrate in the data set: O=[N+]([O-])c1ccccc1O[C@@H]1O[C@H](CO)[C@H](O)[C@H](O)[C@H]1O
The data set is described as follows: purified protein. The class given is biochemical, Geobacillus kaustophilus. The conditions noted are these: free enzyme, not displayed on spores, ONPG 0.83-20 mM, general assay printed as 20 mM potassium phosphate pH 6.0, 75 °C (spore assay).

B1: Bsβ–Gal (Geobacillus kaustophilus) (protein)
chain: MNVLSSICYGGDYNPEQWPEEIWYEDAKLMQKAGVNLVSLGIFSWSKIEPSDGVFDFEWLDKVIDILYDHGVYINLGTATATTPAWFVKKYPDSLPIDESGVILSFGSRQHYCPNHPQLITHIKRLVRAIAERYKNHPALKMWHVNNEYACHVSKCFCENCAVAFRKWLKERYKTIDELNERWGTNFWGQRYNHWDEINPPRKAPTFINPSQELDYYRFMNDSILKLFLTEKEILREVTPDIPVSTNFMGSFKPLNYFQWAQHVDIVTWDSYPDPREGLPIQHAMMNDLMRSLRKGQPFILMEQVTSHVNWRDINVPKPPGVMRLWSYATIARGADGIMFFQWRQSRAGAEKFHGAMVPHFLNENNRIYREVTQLGQELKKLDCLVGSRIKAEVAIIFDWENWWAVELSSKPHNKLRYIPIVEAYYRELYKRNIAVDFVRPSDDLTKYKVVIAPMLYMVKEGEDENLRQFVANGGTLIVSFFSGIVDENDRVHLGGYPGPLRDILGIFVEEFVPYPETKVNKIYSNDGEYDCTTWADIIRLEGAEPLATFKGDWYAGLPAVTRNCYGKGEGIYVGTYPDSNYLGRLLEQVFAKHHINPILEVAENVEVQQRETDEWKYLIIINHNDYEVTLSLPEDKIYQNMIDGKCFRGGELRIQGVDVAVLREHDEAGKV
notes: full-length bgaB in pET-28a (PCR from pJS-cotY-bgaB), expressed in E. coli BL21(DE3), heat treatment and Ni-NTA, free enzyme; printed as tetrameric
Regarding B1, the Km is reported as 2.97 ± 0.05 mM.

By Km is commonly meant the concentration of substrate that gives half-maximal velocity.
